Source: the domain aggregation screens of Martell et al. (2025)

Test: soluble fraction after stress (log2 fold change); higher = more stays soluble; pooled small domains, quantitative proteomics
Settings: stress: 50 degC
How it was run: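 The measure of aggregation propensity here is the base-two logarithm of the fold change in the soluble amount of each protein after stress. A higher value means more of that protein stays in solution. Stress was applied at 50°C to pooled libraries of small protein domains, read out by high-throughput quantitative proteomics.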

Sequence | soluble fraction (log2)
HMLNDMYAVMEIRGQGGELIAKLINQDGSPFYVKKGTTLQSGHVIDEITTTYVRAEKAGAKDYLYF | -0.0846
HMITNLEPFKDFVRGFSGLHLEGVGQEKLAAALDERIRKTGSANERDYLQLIMEDVAERLKLINILT | 0.0546
HMEFEYFQLRDHLYNLIMHPDKEKLKKDPDYLKLMSMAFSLLEDQNVGKDILEIAIKSIENFK | -0.573
HMTTVTVGSKVRVKAGATFSDGAKPFAEVYNTVYDVQLLSHNGKEARIGIGDQWTGWIYISDLYLANQPAP | -0.102
HMADAGQTTAATELKQAPNAGSATISQLSAGQTLQIGTRQGAWYQVKTPQGEGWVRMLSVRLQ | 0.0186
HMVRTIKILGIKHNINLYYKNVKVPTMNVKNQTLEIILPNKYKKFQEEQILKVLTQKLYDKIAETEIEKIK | -0.465
HMVDQAFQTQLKNIQARTGKNLDELYAFIRASGLVKHGEIRDLAKRELSLGHGDANTLAKFYLESLAAAA | 0.269
HMDTHRLNYSDFVAEVQAQRVSKVVIDGYTIVGQRTNGETFETVRPALQDPKLVDDLLQNNVIIEGKQPE | 0.0106
HMPAPAPDIPYHSRVSVRRADGFYEGTWTNTAPILDYTGRWMVNVSLGGKRVFVPVEEVVVH | -0.862
HMKGKIYFFEEGVDRVGGVERVISTLANEFSKKYKVNVISFYKTRKETFFKYNSDIDITYLSK | 0.14
HMSAETRSWTDAQGNQTQAVLRGFDGGDVLLQNAAGKTLRVPVKNLSEDDQRYVVLNISTLID | 0.0786
HMEGMSIYVTVNGDMVHLTGKMSYVFVDVFEHIDFDLSKPQGSGIVTKLNGRDAQYMEEIRSGDMIEIYWR | -0.133
HMGEAIPVPDIRHKSQADAERLLQDQGLAMMVTDTGYVKTLPANYILEQIPVAGEKVKSGHVVYVIINSG | 0.0717
HMSKLQKTKYAGVYFTEDTQTRVKTYVARIVLAGIIDTEVVVGHSNDQHRTNAAIAYQRRLELIQEAKN | -3.86
HMVSDAWITGKVKSQLLADDVTPGMKIDVDTEDRIVSLKGTVPSLTARNEAIRIASHTKGVRTVDADELIV | 0.118
HMTSVAYVIDRINKIQNVYSELEALGLKDEFEKILSNIEDLSKKDIREIKTLLKTKGVIKNLDDLNVKL | -0.0059
HMRLTTTPKTARGLTTMNRIIRAAEVEFGRKGYHYTGITDIAQRAKVASGTIYLYFTDKYSLYVHLLT | 0.246
HMKEIKRLVELSPGRYFIEGATNIRVFGINGSLLLDTKGETVDLSDLAKGVYLLKTDGVTYKVL | -0.543
HMAEMLQDVLNMLSAKDREILVRYYYYYESVKQVAAEMQMSESAVKMRMSRARKKMQQELIDKG | -3.59
HMKFNEKQNEVRIAIMNFIIDNKRPFHMKQDGYDALEGITLSGRHEFQDILDVLHSRDGFSADEEGNINF | -1.51
HMKSYAQIAEILSGQQPNTSRKEGSNLAVHADWIDALIAKYGTALRPEEANEVVKKEIGIVFSHVLEN | -0.0639
HMQKIENYDQFVQAFKRLSGLDLKLYKENQMKRRINNFINNHGFKENYDQFFQAITGNKELYNAFFKHLTI | -0.172
HMNETVTNQTVLDLLKEGFTSEEIIGAIENSSTRTITYDINFMRQLKAAGADVTLTTYLQKIAKKDM | -0.13

Sequence | soluble fraction (log2)
HMKNLKLVSNTDGIRIDSWLADEFEDYSRSYLRKLIDQDLVYVNGNKIKANYKLKKGDEISISIPEPE | 0.142
HMPDLSMLDEVLDEYRSQAGSLVTVLQKAQDLYGYLPLTILRHIAEEMNIKPAQVYGVATFYTQFRL | -0.0547
HMDVRLAKVYMLPANPYLRFIEFDDGTHGKFRAKPGKFGLGSVVKVKREDGDMYTLEGNYDGKDRL | -0.555
HMIPDPPALGSNLHRERRRQQLSLDALAAASGVSKAMLSQIEADKVNPTIATMWKIAHALNIDFETLLRGE | -0.283
HMSTKRGEILEFLKDFSARKGYAPSVREIMQAVGLKSTASVHYHLSELHKAGLITVDGTKNRAISLA | -0.149
HMEQYFEDEELNDKFLEFLAMRKRVRKPVQTDRGMKMLLTSLHKLSGGDVGLMKQIIDQSLDNEWKKFVA | -0.673
HMNINHEINIKSKKKISILENNPNLSQFYLTKNPDQYNYNLVFSDKSELNKLKEKLESDNEVEDIDIRYG | 0.06
HMESEIYKKIEKSRLLELAFTKSQKGDLTGAYDLYYQAFTKYDVIADNQNRYFEDFISLIRRKQQQD | -0.739
HMDLLVWRVADEDAGERIDKLVVDSLDDVSRTAVQQWIKDGLVTVNGKTVKPNYKAAAGDEVAVSVPEPE | 0.149
HMTDIKYLIADGNDIKHWDTASSSYVKVSELPLTSDKFKIYGDDIYHKERTGIIAASPILKIWSPSAE | 0.369
HMGPSLDAVREQIRDLIAEEDKSAPYSDLSLVAELEKRGIHISRRTIAKYRGEMGIPNSDQRRYF | 0.0495
HMALKQADFDFIRQMIQQRAAIVLDDNKHYFVESRLGPVVEETGSKSLDQLIDQLRSSSNSLLQQKVTEAI | -0.199
HMTSPQGIERFLASGVIEGVGKAMAARIVAVFGGQTLEIIEKQPHRLREVRGIGVKTAEKIHASYQEKA | -0.81
HMSDILALMPGTIKQILVAPGDSVKRGQTVIIMESMKMELTIAAHRDGVVKRIPVEQGGQVEKGMRLLELE | 0.256
HMDLLESLSAREREVVHLASRGLVNKLIARELGITERTVKAHLSSAFEKLHIKDRVHLALLVNGI | -1.45
HMDTPPGLSPEEQAIIDIITTRGDATINELTASIDIPTPRLMGMLVDMEFRSLIAAIPGGRYRI | -1.16
HMRGFGYVRRLPSKRYQASYAGPDLQRHVAPTTFTTKADAESWLGAERKVVESGSWRPPAVREAEARLS | 0.357
HMSYLDTLPGRRVAAQGAITGDAGTLAVDGDTWSARVEPGAPDVAPGDEVTVLRIDGATLVVRPLP | -0.0478
HMNNTIKFFVSQDDDSTRLDVFLSKKIENLTRSNIKKFINLNNVKINKATINSPSKKVKLYDEIEIKFSS | -1.72
HMLSSAAAIDRILAGGTAAMNHRQFDAALTSFNTVIEMRPDFAEGWNKRATLYYLIGEYERSIADVERTLA | 0.1
HMVKTANVAYSEFLKLVESDNISDVSIVGRTITGHLDDGTKFSTYTPPNDPSLIDKLTRKNVIIKSAPE | -0.00389
HMLQADALADPVGWALRTLGFDLEAGTPERSAIQRSFRQSLIEAHPDHGGADDEAAQRIADITEARRILLA | -0.346
HMELSESLENYLVVIYEAHLRNEIARIKDMTASLSVKHTSAIDAIKKLEDLGIVNYEKRGFVKLTQSGIEK | 0.0501

Sequence | soluble fraction (log2)
HMTSLSYINDLVTGATAQGLYRIVVPNQFMDDNMANVLRRTYGYQVQSRTSLMGTFDDYIISWAPPM | -2.45
HMVDDNFGLGEVTDQNYLTVLGRALDLIGWTDEQADSYSLKTFGVPHWDELGRSQAEKLVAHLIGLLKEQM | -0.33
HMKQLRVLGIVKAGSILKNSDGSIEFVIEDSGKSLLVKYKGVIPDIFKDGVEAVVEGDLRGSVFNADKLF | -0.75
HMQLTPAQHAILAYAIEHTGGKIEWFPDNIKGGARTKVLEGLFNKALITRDSTDWFVAAEGYDALGR | -0.549
HMTNIQFINLKMTDNHPWIHQYIKDIILPPQTRIVMIKRNDIKTIPKGERRIEKDDELILSAFESQT | -1
HMAQLPADLSKVKSSQISDQQLTQIAQQAKNSGQSEQAVLQELKQRGLPDTEIQALGARISGLMQ | 0.137
HMTSKIIIGDSYSKINKLLGEPENMKKRKFLDNEYLMVLYSINKKNYRLYFKDNILFELEDI | -0.941
HMTYTGTVTGVDEGGLRVRSSTSTENTSNVITKVYTGDTFDVLDTVYNGSAKWYKIGFTYNGTYTYGYVSA | -1.17
HMNHYIGVDRAKEIALNHANLSETDVVFTKEKLENDDGGAEYEIEFHSGRTEYDYTIDAASGNIIEYDVDY | 0.421
HMEQVLNVAVRRGELIMSSAAEQTVRIYSSAGSMVWQGKVSASDVTVELPSGVYVVNGKKVV | -1.19
HMDQSIDADIINLNFSKNIIKIEENVYYKNNNAKVNADKIEINIETKKLKISMNEQEDEVEIFAK | 0.283
HMDGYVPAERIASEVGVSARTITREMHGLEMTLMPYGIALLRRTGAGFMLAGTAKALADLRKHMTEDADTQ | -0.00161
HMDTRSSARKALDAVNLLLETYGAKAYQHSYEIAGRRQQFQTPGDFMAFRSRLMAEVATEENAARINA | 0.152
HMDVLTARENEVLQLLAKGMSNKEIASVLVITEKTVKAHVSSILSKLNLSDRTQAALYAVKNGI | -0.151
HMNTELFTKNLFNKLEVLLGEKNWKSKTAQLLNISSDAFYKKIRNESQLNLHELLLIKDTFKISIDALLDE | -1.24
HMHSKQRDAIFENLRSRKDHPTAEEIYLSLKPAMPAISLATVYRNLAQLENEGLILRLGSGGSARYDGDT | -0.441
HMKVFREERLQLILEKLIHEKKVVVSDLVKYFNVSPSLIRMDLAELEKRDLILRTHGGAILPD | -2.23
HMIDYIKYTVDGKTYELINNWDGTWSRELEAPLVAGRYDLLLEISQNGLVTYIDSSDPRYEFYLDVI | -3.12
HMFLPFFDNLRKAGVPVSLREFLGFLEGMKAGLATYDIDAFYFLARTTMVKDERNLDKFDRAFSATFKG | -0.563
HMAKMPSIIIMKDGVIRTSELEQIERDENWLNEEMKKQHIDNPEDVFLAEFWDGKVNFILQDGKIK | 0.0716
HMDAEETLGARLRRLRQARGLSLAGLAQAAGLSKPSIWAWENGTTAPRRTSLLALARALDVPEQQLTGV | -0.358
HMTEELLNQRKETMLALLNDPTYVPMKLKELAMLLNLSRDQRDELREVMESLEQDGKVILTKRGKYKIP | -0.269
